Results from paper PMC5799870.

Target: soluble human FcRn (human) (UniProt P55899)
Experiment: SPR
Details: natural protein; remark: other sources report otherwise

- Kd: 13.2 µM
Substance: Recombumin-NHBn34 (from UniProt P02768 25-609)
